Results taken from US20030208060A1.

Key:
[1] = target: trypsinized VLDL2 (tryp-VLDL2) (human) (UniProt P04114); experiment: inhibition of 125I-tryp-VLDL2 binding to THP-1 macrophages, 4 °C, LpL 1.0 µg/ml
[2] = target: trypsinized VLDL Sf100-400, devoid of apoE (tryp-VLDL) (human) (UniProt P04114); experiment: inhibition of 125I-tryp-VLDL1 binding to THP-1 macrophages, 4 °C, LpL 1.6 µg/ml
[3] = target: triglyceride-rich lipoproteins; experiment: co-incubation with TGRLP, cell binding and ligand blots

Percent Inhibition [1]: 17% | Percent Inhibition [2]: 26% | percent inhibition of specific binding [3]: 25%
B1: lipoprotein lipase (enzyme, UniProt P06858 28-475, looked up, species assumed)
Lipoprotein lipase: ADQRRDFIDIESKFALRTPEDTAEDTCHLIPGVAESVATCHFNHSSKTFMVIHGWTVTGMYESWVPKLVAALYKREPDSNVIVVDWLSRAQEHYPVSAGYTKLVGQDVARFINWMEEEFNYPLDNVHLLGYSLGAHAAGIAGSLTNKKVNRITGLDPAGPNFEYAEAPSRLSPDDADFVDVLHTFTRGSPGRSIGIQKPVGHVDIYPNGGTFQPGCNIGEAIRVIAERGLGDVDQLVKCSHERSIHLFIDSLLNEENPSKAYRCSSKEAFEKGLCLSCRKNRCNNLGYEINKVRAKRSSKMYLKTRSQMPYKVFHYQVKIHFSGTESETHTNQAFEISLYGTVAESENIPFTLPEVSTNKTYSFLIYTEVDIGELLMLKLKWKSDSYFSWSDWWSSPGFAIQKIRVKAGETQKKVIFCSREKVSHLQKGKAPAVFVKCHDKSLNKKSG
